# Data published in paper PMC6485186.
# Molecular target: TNF-alpha (mouse) (Mus musculus, UniProt P06804 80-235)
# Assay: nitrocellulose filter binding with qPCR
# TNF-alpha (mouse), sequence (P06804 80-235): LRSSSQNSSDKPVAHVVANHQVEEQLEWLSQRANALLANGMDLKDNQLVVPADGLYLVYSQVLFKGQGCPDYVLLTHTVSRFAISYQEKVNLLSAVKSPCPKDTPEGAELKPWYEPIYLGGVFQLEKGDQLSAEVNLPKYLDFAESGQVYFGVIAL
binder,measurement,value
GCGCCACTACAGGGGAGCTGCCATTCGAATAGGTGGGCCGC (ssDNA) [aptTNF-alpha],binding result,binds
